{"source": "the DeepSol protein solubility set", "data": [{"experiment": "soluble on expression in E. coli; label from the status in PepcDB or PDB records", "values": [{"sequence": "MSLAPIRLALIEGLSGPFANAGEAVDRNLRIAIEGVNARGGVRLPDGRHPLALVRFDSKNMVDESLLQLQAASDAGIRFVLQGNSSAAAAALSASIARHNDRAPDARMLFLNYAAVDPALTNEACSFWHFRFDASADMRMHALTEVIRADPSVKQVYLIGQDYTFGRQVAQLARRQLGEKRPDIAIAGEVLHPIGKVKDFAPYVARIAASGADAVITGNWGNDLTLLVKAARDAGLKARFFTFYGNSLGAPGAMGEAGVGRVVAVAEWHPNLGGTGSDAFYKAFRARYPAPVDDYPLLRDQMMIDLLATAIERAGTTEAGAVARALEGASLDTGFHRLTLRAEDHQAIQPLVVMQMARAGTPGAPFDIEGSGYGFRTLKVIPPAQTALPTTCRMARYEGHHHHHH", "soluble on expression in E. coli": "soluble"}, {"sequence": "MSLAPPVRSLHIGTVAGFTADPQHLDRIAIHLPALNLPDSLIFARLSKPWASHASGFCFYPEPGDEVVVGFIDSDPRYPMILGALHNPKNTAPFPPDEKNNRKGLIVSQADQTQALMIDTEEKTLRLMAGDNTLTLTGEGNLTMSTPNALQLQADTLGLQADSNLSIAGKQQVEITSAKINMKEGHHHHHH", "soluble on expression in E. coli": "soluble"}, {"sequence": "MSLAREDYAAQVALLVRVLPYVAKEEIFALKGGTAINLFYRDLPRLSVDIDLTYLPVKDRAESLVEINDAMDRIAAAIEGGITGAKAQRIAGGGGGATRALARLGTAEIKIETSPVTRGVVHDPEQREVSEAVEEEFGYATMNIVSFEDLFGGKLHAALDRQHPRDLYDVKLLYENEGFTDELFRTFLIYVASSPRPPHELLNPNLIDLDQPYAREFEGMTKEAVDLAELIATRDRLIGDIQSRLNDDAKRFLRTLHEGDPDFDAIDRPQGAGLPAVRWKLINVNNPNKNAQAAFTGAVVELLPFCGEGHHHHHH", "soluble on expression in E. coli": "not soluble"}, {"sequence": "MSLARHRGKTEKLYVIPLGGLGEIGKNCMVVQYGDDIIVIDAGLAFPEEEMLGIDIVIPDFTYLLENREKVRGILITHGHEDHIGAVAYLLRNINIPVYATRLTLGLIEGKLAEMGMKLPAESKAVRAGDQVKLGPFTCEFIRVNHSIPDACAIAVTTPVGTILHTGDFKFDQTPIDGEFADYRRLTELGKRGILALLSDSTNAERPGYTPSERSVRPNMERVFREAKGRILMATFASNVHRIQQAIELAAEMGKKVAVVGRSMENTVRIALELGYLNVPEGTMVTVDELRRVPLNQQVILTTGSQGEPMAALSRMAVNDHKAIELYPGDTVLFAATAIPGNEKSVARTVNNLYRRGAEVIYDRSAGVHVSGHASQEEQKLMINLTRPKFFVPIHGEYRMLLKHKQLAEACGIPSENILIGENGTIFEFTRNSAQITGKVTSGQVLVDGLGVGDVGNIVLRDRKQLAQEGILIVVVAVDREEGTIVGGPDMVSRGFVYVRESEGLLDEAKERVKRALADQMQRGLPEWAVLKSSIRDVLSKYLYDKTHRRPMILPIIIEIEGHHHHHH", "soluble on expression in E. coli": "soluble"}, {"sequence": "MSLARLKVKVWGEYACFSRPEFKVERVSYPVPTPSAARGLLEAIFWKPEFRYEVRRIGVLRLGTPFALLRNEVGNRMGAKPFFVEDARQQRTSLVLKDVAYLVEADMVLRPHATDPLPKYLEQFERRLKKGQYHHTPYLGTREFPAYFSPPDGEVPDGGLNLDLGPMLFDLAFVEDPGRPELTFKRPGRGEVQGYALPLFFHARIREGWLEVPAEKYQELYRLEEGHAKGAEGHHHHHH", "soluble on expression in E. coli": "soluble"}, {"sequence": "MSLARPQLTILHCGKLIDGHSKNTKKVVSIIVEKNTIVDIADGYVDPGEGDLAIDLNGYTVLPGLMDMHVHLSGESNPKRYTERFTMDLDDYAYRSIAYAKRTLMAGFTTVRDLGGPINTSLRDAINNNQVVGPRVYSAGKAIATTGGHADPTNGMKFELMGDPGPAEGVVNGIAEARKAVRQRYKNGADLIKITATGGVLSVAKNGENPQFQEDEIRAIVETATDYGMHVAAHAHGAEGMKRAVRAGVRSIEHGTLMDEETMALMKEKGTYYIPTISAGEFVAEKAEIDGYYPDIVRPKAKKIGPQIKKTFQKAYDAGVSIAFGTDSGVSYHGDNAKEFAYMVEAGMSEIEAIISATKTAAELLEISNTLGTIEKDKLADIIAVEGDPIENIVALESVVFVMKNGVIYKNGDNEGHHHHHH", "soluble on expression in E. coli": "soluble"}, {"sequence": "MSLASEILPDEFLELFKDLKKPPKKLHYKGNLSLLKQDKIAIIGSRRMSVYTKNCVFSLASMLKNAHLCVVSGGALGVDITASMAAMPNTIGIFANGLDQIYPRTNEKIIKQIYENALALSEYEDDYLPKNYDFLLRNRLVIALSKAVVVAQADIKSGSMQSAKLALELNKPLYVLPQRLGESTATNLLLKENKAKLICDFKEFVSEFASIDMNQDEFLEFCKKGVSVDEALKIYGQKVYEYELEGKISIEGLFIRVLAEGHHHHHH", "soluble on expression in E. coli": "soluble"}, {"sequence": "MSLASIMFGVFVHALECSRPVGLVQAKLLLWTLTASIMVIILSEEGEVAEQLEFFPVQSPCRGICQSDERGFCRGCFRSRDERFNWNKMSDGEKQEVLRLCRQRLMRKLRANKPASSDEPEQPSLFEGHHHHHH", "soluble on expression in E. coli": "not soluble"}, {"sequence": "MSLASKPSLLFVDDSKVMRLAADKMLGREFRVEVAENGLQAWTMVCHNPSISVVFSDLAMPEMDGFALLKKIRTSEDEGVAGLPVIIVTGAENDDEARAEALRLGGTDFISKPFNSTDLLARARAHANYQNERKEFAKQAMIDPLTRLGNRRYLLHRLRQELALAARQQYRLSVVQLEICQFNQLFVQLGKKRTDMVLLKLAQSLRGVIRKEDSLARSSVAQFTVLLPSAGPNGAKRFVERALKVSERLAFQFRGKVQRLPLTVIIHTPAVHAGLAPRQVQLALEEQLKQARKLGPGTVLSDDADTTLSVDESAPILTIEQALVLLRAGKPRAVVSALPDLERQLAPLLELMKRSASDQEGHHHHHH", "soluble on expression in E. coli": "not soluble"}, {"sequence": "MSLASRQAIGFIAPSLAGEFMTGVMEGILQSLRKHQYDLIAVQGAPQHLINNQLAKQHIKAWIVIIDPTGLNELATNMPAVVISAPNAGERFPLVMPDNNQSARAMVEHLIEHGHSKIAFVGNFNNSDMRDRYTVYCDVLNEHSITPNPAWVVDVGDYTEGRTEHAFYPLIANGLNFSAVVAANDQQAVGVMMALETKGYRVPHDMAVVGFDDATIAQHANPPLTTVRQQPQLLGSIAADTVIELIAGKPVSNAPIYVPTIPIWRQSCGCKDVYTGIKEGHHHHHH", "soluble on expression in E. coli": "not soluble"}, {"sequence": "MSLASTFKFLVTSDNHLGYQERDSRRGDDSFTTFEECLRAARLEHEVDAILLAGDFFHDNKPSLGCLARTSSLLRSYVLGDKPISFTLLSDPKRNFPTHPVPLANFQDPNINVALPIFMIHGNHDDPVGGTSSIDILSTAGLVNYFGHTSSLDDIVVEPVLLKKGDTYIALYGLGNVRDDRLHRCFRMKKLHFVQPKTEPGKDWFKILLFHQNRGVRSGGNMKCGIYETMLAGHGMDLVIWGNEHEQQMEPSPSEGFDIIQPGSTILTSLSEHECNPKKYGVLEVRGGSYRVTGFPLRSIRPVVRRTVELWRDNPGCRTLDAVEDFLRSVVEQMIEEAEEQVSRIPDDVLKFHPNIKFPIMRLAVDFTDPDSTTFPQPNINRFGQQYMDIVVNPSELLRPIKPKQVPRVASSASATGGEAPVVPVPRLNTSDIRTKVAEVFNANARDACSLLSESEVSAAVYAFAEKGERDAIDERICELLSKCQKSVWVSMRREGHHHHHH", "soluble on expression in E. coli": "soluble"}, {"sequence": "MSLATIDSMNKDTTRLSDGPDWTFDLLDVYLAEIDRVAKLYRLDTYPHQIEVITSEQMMDAYSSVGMPINYPHWSFGKKFIETERLYKHGQQGLAYEIVINSNPCIAYLMEENTITMQALVMAHACYGHNSFFKNNYLFRSWTDASSIVDYLIFARKYITECEERYGVDEVERLLDSCHALMNYGVDRYKRPQKISLQEEKARQKSREEYLQSQVNMLWRTLPKREEEKTVAEARRYPSEPQENLLYFMEKNAPLLESWQREILRIVRKVSQYFYPQKQTQVMNEGWATFWHYTILNHLYDEGKVTERFMLEFLHSHTNVVFQPPYNSPWYSGINPYALGFAMFQDIKRICQSPTEEDKYWFPDIAGSDWLETLHFAMRDFKDESFISQFLSPKVMRDFRFFTVLDDDRHNYLEISAIHNEEGYREIRNRLSSQYNLSNLEPNIQIWNVDLRGDRSLTLRYIPHNRAPLDRGRKEVLKHVHRLWGFDVMLEQQNEDGSVELLERCPPRMGNLEGHHHHHH", "soluble on expression in E. coli": "soluble"}, {"sequence": "MSLATIKDIARRAGVIPSTVNRTLKDNPSISKETKAKVRAAMDELGYVPNSAAQMLATGLTHSLGVVLPPLTDRENISQPFYMEIITAINEEASSNSQVVSIATGATLEELVKQVELMHRQKRADGFIILYSETNDPVKDYLLKEKVPSVVVGAAVDNNDKVTYIDNDNKELGQEAVNFLRAKGHQKIGFVTDDLFGQVGQEHYQGYIEATNEFNLETYPELVFSSRVIDSLIESLQSYQLTALIVKDDLIALRFIHWLNNQGIRIPEDYAIISFNNSIFAEIMYPFLTTYDINIKELGKESVQRLLDLLKNPQTKAQKITIPFRLIERESVSMGEGHHHHHH", "soluble on expression in E. coli": "soluble"}]}]}
